Data from US20220325265A1, “GLUCOCEREBROSIDASE MUTANTS” (Hoffmann-la Roche Inc., priority 2019, published 2022).

How the values were obtained:
hGCase = test: Inhibition of hGCase using isofagomine (IFG), IC50 determination; assay type: biochemical, human; details: reversible inhibitor isofagomine on the named hGCase variant; 25 nM protein, 10 min pre-incubation at RT, 20 μM res-β-glc
Experimental: IFG is a competitive, reversible inhibitor of hGCase, interacting with the active pocket of the enzyme (Powe et al., 2006).
To calculate the IC50, a concentration range of 0.002-100 μM IFG was tested. IFG was prepared with a stock concentration of 1 mM in DMSO. The final enzyme concentration was 25 nM. After adding the inhibitor to the enzyme, the solution was pre-incubated for 10 min at RT before adding the substrate (20 μM) for the activity measurement.
The evaluation and IC50 determination were done using GraphPad Prism7. hGCase activity with no inhibitor added was set to 100% relative enzyme activity. In case of evaluating the raw data via GraphPadPrism7, the applied inhibitor concentrations were first transformed to log 10×-values plottet on the x-axis. Further, the raw data measured with the activity assay in RFU was normalized to the highest activity value within one data set (equals 100%). 100% signal was defined as 10-12 μM IFG (=no inhibitor added). Data points were fitted and IC50 values were determined using log(inhibitor) vs. response-variable slope (four parameters) (GraphPadPrism7) following equation 9: […]
To determine whether the active binding site of an enzyme is compromised or altered, IC50 values were calculated for active site inhibitor and compared. In this work, the natural occurring GCase inhibitor isofagomine (IFG) and conditurol-β-epoxide (CBE) were used. IFG is known as a reversible inhibitor, interacting with the active site of the GCase enzyme, whereas CBE is an irreversible inhibitor of GCase (Powe et al., 2006). The IC50 of an enzyme is defined as the concentration of an inhibitor, where the response, in this case the enzyme activity, is reduced by half (Kalliokoski et al., 2013). Both assays were conducted as described in section 2.5.6. The inhibitor profiles of M53T/P55T using IFG and CBE as well as the IC50 profiles of all residual mutants combined are shown in FIG. 4.
The raw data was plotted by transforming the applied IFG/CBE concentration to a logarithmic scale (x-axis, FIG. 4) and by normalizing the activity signal with highest signal of each data set to 100% (defined with apparent inhibitor concentration of 10-12 μM, equal to no inhibitor). IC50 values were calculated using GraphPad Prism7 following equation 9.

[1] = pH screening of hGCase variants (activity assay, pH 3.5-8); assay type: biochemical; details: for relative activity: highest activity = 100%; for pH optimum: pH range 3.5-8, 75 nM protein, 100% relative activity
Experimental: For all further GCase characterization experiments including the activity assay, 20 μM substrate concentration, 30-40 min incubation time and protein concentrations ranging from 25-100 nM were set as final assay settings to ensure measurements in the linear range. The overall DMSO concentration within the assay was kept at 0.5% (v/v) or even below, since DMSO influences the fluorescent signal with higher concentrations (experimentally tested, data not shown; confirmed by (Urban et al., 2008). Therefore, GCase activity buffer+1% (v/v) DMSO was also used for dilutions (table 2.9). The plate reader SpectraMax i3 (Molecular Devices) including the analysis software SoftMax Pro 6.4 was used for all activity measurements within this work. The program settings were kept the same for all activity runs: kinetic run, measurement temperature: 37° C., PMT Gain: high; flashes per read: 6; read height: 0.73305 mm from plate.
A pH optimum screening was done to observe a possible shift in the pH spectrum of the new variants due to structural modification of the enzymes. Therefore, three different buffers were used, covering a pH range of pH 3.5 to 8. For the screening, buffer substances were chosen after the use for purification buffers. Therefore, following buffers were prepared: Citric acid buffer (20 mM, pH 3.5-5), MES buffer (20 mM, pH 6-6.5) and HEPES buffer (20 mM, pH 7-8). The final protein concentration used for this assay was 75 nM. The activity assay was done as described in section 2.3.5 (table 2.11), merely the buffer was varied.
A possible pH optimum shift due to structural modifications should be examined. Since the GCase enzyme originally occurs within the lysosome, its natural pH optimum is reported to be between pH 4.7-6.0 (Lieberman et al., 2007; Liou et al., 2006; Tan et al., 2014). This could change when including slight modifications in the structure of the molecule. Thus, the mutants were tested within a pH range of 3.5 to 8 for enzymatic activity.

[2] = Thermal shift assay via nanoDSF measurement (unfolding temperature); assay type: physicochemical; details: Prometheus NT.Plex, 3° C./min, 0.06-0.5 mg/ml
Experimental: The thermal shift assay was performed via nanoDSF (differential scanning fluorimetry) measurements using Prometheus NT.Plex nanoDSF (NanoTemper Technologies). The measurement was initialized using the software PR.ThermoControl. Prometheus can precisely characterize samples by measuring the thermal unfolding, chemical denaturation and aggregation within one single run (NanoTemper Technologies, 2019). By gradually heating the sample until reaching 95° C., the protein unfolds. Thereby, the chemical environment of tryptophan residues changes (change in intrinsic tryptophan fluorescence of protein due to more aqueous environment), causing a red-shift in fluorescence (tryptophan fluorescence emission shift). By plotting the fluorescence ratio 350/330 nm against the temperature, the melting temperature Tm can be determined. Calculating the first derivative of raw data gives a peak curve with its maximum indicating the unfolding temperature Tm.
For the sample preparation, a concentration of 0.5 mg/ml was adjusted for the hGCase mutants. For variant I5N and R495HS2, protein concentrations of 0.075 mg/ml (I5N) and 0.06 mg/ml (R495HS2) were applied due to low protein yields. 15 μl total sample volume was uptaken in each capillary of the capillary rack (Prometheus NT.Plex Capillary Chips, NanoTemper) and placed in the device. The excitation power was adjusted to 20-80%, depending on the applied protein concentration. The gradually heating was set to 3° C./min until reaching 95° C. (20° C. was set as starting temperature). The evaluation and calculation of the first derivative was done using the NanoTemper PR.ThermoControl software, the final evaluation and graphing was done using the PR.StabilityAnalysis software.
On the one hand, a successively increasing temperature gradient was applied to measure melting temperatures of protein molecules via nanoDSF (differential scanning fluorimetry) measurement using Prometheus NT.Plex (NanoTemper Technologies, 2019). The sample is gradually heated by increasing the temperature until reaching 95° C. Thereby, the protein unfolds and tryptophan residues experience a change in chemical environment (exposure to a more aqueous environment), which changes the intrinsic tryptophan fluorescence of the protein, causing a red shift in the fluorescent spectrum (350/330 nm=tryptophan fluorescence emission shift) (Schubert, 2015). In FIG. 1, typical melting curves of such an unfolding experiment are shown.
In the upper section of the graphs (FIGS. 1 (A) and (B)), the raw data (progression curves) measured with nanoDSF is plotted, indicating the shift in the fluorescence ratio 350/330 nm during the course of the measurement with increasing temperature. The calculation of the first derivative, giving peak curves (lower section of graphs in (A) and (B)), was done according to default settings of the Software PR.StabilityAnalysis (table 2). Peak maxima (thermal unfolding transition midpoint) indicate the unfolding temperature Tm, where half of the proteins are unfold (Schubert, 2015).

[3] = pH 3.5, 20 mM citric acid buffer

IC50 (hGCase) [nM]	loss of activity [1, 3] [%]	activity at pH 8 ([1]; pH 8, 20 mM HEPES buffer)	Molecule	relative activity [1, 3] [%]	pH optimum [1] [pH]	unfolding temperature Tm [2] [°C]
28 ± 3			F31Y: recombinant human β-glucocerebrosidase variant R495H/F31Y, S2 cells; Seq. Id. No. 5 (protein, listed as Homo sapiens, recombinant human β-glucocerebrosidase variant R495H/F31Y, S2 cells; Id; No. 5) ARPCIPKSFGYSSVVCVCNATYCDSFDPPTYPALGTFSRYESTRSGRRMELSMGPIQANHTGTGLLLTLQPEQKFQKVKGFGGAMTDAAALNILALSPPAQNLLLKSYFSEEGIGYNIIRVPMASCDFSIRTYTYADTPDDFQLHNFSLPEEDTKLKIPLIHRALQLAQRPVSLLASPWTSPTWLKTNGAVNGKGSLKGQPGDIYHQTWARYFVKFLDAYAEHKLQFWAVTAENEPSAGLLSGYPFQCLGFTPEHQRDFIARDLGPTLANSTHHNVRLLMLDDQRLLLPHWAKVVLTDPEAAKYVHGIAVHWYLDFLAPAKATLGETHRLFPNTMLFASEACVGSKFWEQSVRLGSWDRGMQYSHSIITNLLYHVVGWTDWNLALNPEGGPNWVRNFVDSPIIVDITKDTFYKQPMFYHLGHFSKFIPEGSQRVGLVASQKNDLDAVALMHPDGSAVVVVLNRSSKDVPLTIKDPAVGFLETISPGYSIHTYLWHRQ	~80	6	55.1 ± 0.1
27 ± 6	40		imiglucerase (protein, UniProt P04062 40-536, looked up, variant R495H, imiglucerase; CHO-produced, Commercially available Cerezyme (imiglucerase, Genzyme), hGCase R495H produced in CHO cells) Lysosomal acid …: ARPCIPKSFGYSSVVCVCNATYCDSFDPPTFPALGTFSRYESTRSGRRMELSMGPIQANHTGTGLLLTLQPEQKFQKVKGFGGAMTDAAALNILALSPPAQNLLLKSYFSEEGIGYNIIRVPMASCDFSIRTYTYADTPDDFQLHNFSLPEEDTKLKIPLIHRALQLAQRPVSLLASPWTSPTWLKTNGAVNGKGSLKGQPGDIYHQTWARYFVKFLDAYAEHKLQFWAVTAENEPSAGLLSGYPFQCLGFTPEHQRDFIARDLGPTLANSTHHNVRLLMLDDQRLLLPHWAKVVLTDPEAAKYVHGIAVHWYLDFLAPAKATLGETHRLFPNTMLFASEACVGSKFWEQSVRLGSWDRGMQYSHSIITNLLYHVVGWTDWNLALNPEGGPNWVRNFVDSPIIVDITKDTFYKQPMFYHLGHFSKFIPEGSQRVGLVASQKNDLDAVALMHPDGSAVVVVLNRSSKDVPLTIKDPAVGFLETISPGYSIHTYLWHRQ			55.2 ± 0.0
22 ± 4			L34Q: recombinant human β-glucocerebrosidase variant R495H/L34Q, S2 cells; Seq. Id. No. 6 (protein, listed as Homo sapiens, recombinant human β-glucocerebrosidase variant R495H/L34Q, S2 cells; Id; No. 6) ARPCIPKSFGYSSVVCVCNATYCDSFDPPTFPAQGTFSRYESTRSGRRMELSMGPIQANHTGTGLLLTLQPEQKFQKVKGFGGAMTDAAALNILALSPPAQNLLLKSYFSEEGIGYNIIRVPMASCDFSIRTYTYADTPDDFQLHNFSLPEEDTKLKIPLIHRALQLAQRPVSLLASPWTSPTWLKTNGAVNGKGSLKGQPGDIYHQTWARYFVKFLDAYAEHKLQFWAVTAENEPSAGLLSGYPFQCLGFTPEHQRDFIARDLGPTLANSTHHNVRLLMLDDQRLLLPHWAKVVLTDPEAAKYVHGIAVHWYLDFLAPAKATLGETHRLFPNTMLFASEACVGSKFWEQSVRLGSWDRGMQYSHSIITNLLYHVVGWTDWNLALNPEGGPNWVRNFVDSPIIVDITKDTFYKQPMFYHLGHFSKFIPEGSQRVGLVASQKNDLDAVALMHPDGSAVVVVLNRSSKDVPLTIKDPAVGFLETISPGYSIHTYLWHRQ	~80	6	55.2 ± 0.0
26 ± 3		completely inactive	I5N: recombinant human β-glucocerebrosidase variant R495H/I5N, S2 cells; Seq. Id. No. 4 (protein, listed as Homo sapiens, recombinant human β-glucocerebrosidase variant R495H/I5N, S2 cells; Id; No. 4) ARPCNPKSFGYSSVVCVCNATYCDSFDPPTFPALGTFSRYESTRSGRRMELSMGPIQANHTGTGLLLTLQPEQKFQKVKGFGGAMTDAAALNILALSPPAQNLLLKSYFSEEGIGYNIIRVPMASCDFSIRTYTYADTPDDFQLHNFSLPEEDTKLKIPLIHRALQLAQRPVSLLASPWTSPTWLKTNGAVNGKGSLKGQPGDIYHQTWARYFVKFLDAYAEHKLQFWAVTAENEPSAGLLSGYPFQCLGFTPEHQRDFIARDLGPTLANSTHHNVRLLMLDDQRLLLPHWAKVVLTDPEAAKYVHGIAVHWYLDFLAPAKATLGETHRLFPNTMLFASEACVGSKFWEQSVRLGSWDRGMQYSHSIITNLLYHVVGWTDWNLALNPEGGPNWVRNFVDSPIIVDITKDTFYKQPMFYHLGHFSKFIPEGSQRVGLVASQKNDLDAVALMHPDGSAVVVVLNRSSKDVPLTIKDPAVGFLETISPGYSIHTYLWHRQ	75		54.8 ± 0.4
